Test results reported in patent publication US20180320138.

Tests used:
[1] = system: PKLR TALEN left subunit (synthetic construct (Xanthomonas TALE-FokI)?); test: cell_activity; conditions: PKD2iPSC, with right subunit; 31% in PKD3iPSC; cleavage also seen by Surveyor assay
[2] = system: PKLR TALEN right subunit (synthetic construct (Xanthomonas TALE-FokI)?); test: cell_activity; conditions: PKD2iPSC, with left subunit; 31% in PKD3iPSC; cleavage also seen by Surveyor assay

Sequence | TALEN cleavage efficiency [1] | TALEN cleavage efficiency [2]
TGATCGAGCCACTGTACTCCAGCCTAGGTGACAGACGAGACCCTAGAGA (double strand) [PKLR intron 2 TALEN target, left half-site] | 40% | –
TGATCGAGCCACTGTACTCCAGCCTAGGTGACAGACGAGACCCTAGAGA (double strand) [PKLR intron 2 TALEN target, right half-site] | – | 40%
